Experimental data published in the supplement of paper PMC7877785.
± gives the uncertainty stated by the source.

Assay: self-splicing fitness, log relative to wild type (ln ratio); higher = more splicing; Tetrahymena group I intron in knt gene, E. coli kanamycin selection, DiMSum; sequences stand for … in CUCUCU…GGAGGGAAAAGUUAUCAGGCAUGCACCUGGUAGCUAGUCUUUAAACCAAUAGAUUGCAUCGGUUUAAAAGGCAAGACCGUCAAAUUGCGGGAAAGGGGUCAACAGCCGUUCAGUACCAAGUCUCAGGGGAAACUUUGAGAUGGCCUUGCAAAGGGUAUGGUAAUAAGCUGACGGACAUGGUCCUAACCACGCAGCCAAGUCCUAAGUCAACAGAUCUUCUGUUGAUAUGGAUGCAGUUCACAGACUAAAUGUCGGUCGGGGAAGAUGUAUUCUUCUCAUAAGAUAUAGUCGGACCUCUCCUUAAUGGGAGCUAGCGGAUGAAGUGAUGCAACACUGGAGCCGCUGGGAACUAAUUUGUAUGCGAAAGUAUAUUGAUUAGUUUUGGAGUACUCGUGGUCG
Outline: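 DiMSum derived fitness as the error-weighted combination of fold changes across replicates, kanamycin versus no kanamycin, normalised to wild type. E. coli BL21(DE3) held the library, which randomised all eight P1ex-region intron nucleotides within the knt kanamycin-resistance gene on pET-22b(+). Six replicate transformations grew overnight at 37°C or 30°C on LB agar with or without 25 μg/mL kanamycin, also containing 100 μg/mL carbenicillin, 50 μM IPTG and 0.2% rhamnose, and pooled colonies were amplicon-sequenced on an Illumina HiSeq 2500.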

| Sequence | self-splicing fitness (ln) (30 °C) | self-splicing fitness (ln) (37 °C) |
| --- | --- | --- |
| ACACAGCAAUAUUACGUCAC | -3.22 ± 0.16 | -2.86 ± 0.27 |
| ACACAGCAAUAUUACGUCGU | -2.67 ± 0.11 | -1.58 ± 0.12 |
| ACACAGCAAUAUUACGUCUC | -3.26 ± 0.099 | -1.25 ± 0.08 |
| ACACAGCAAUAUUACGUCUG | -1.65 ± 0.055 | -0.547 ± 0.061 |
| ACACAGCAAUAUUACGUGCA | -0.241 ± 0.051 | -0.395 ± 0.063 |
| ACACAGCAAUAUUACGUUAC | -3.18 ± 0.15 | -2.14 ± 0.17 |
| ACAGAGCAAUAUUACGAAAG | -3.24 ± 0.19 | -1.46 ± 0.16 |
| ACAGAGCAAUAUUACGAACG | -2.76 ± 0.19 | -1.45 ± 0.28 |
| ACAGAGCAAUAUUACGACGC | -1.19 ± 0.13 | -0.298 ± 0.14 |
| ACAGAGCAAUAUUACGAGUA |  | -2.34 ± 0.27 |
| ACAGAGCAAUAUUACGAUAU | -3.55 ± 0.29 | -2.62 ± 0.32 |
| ACAGAGCAAUAUUACGAUUG | -2.95 ± 0.26 | -3.3 ± 0.3 |
| ACAGAGCAAUAUUACGAUUU | -3.03 ± 0.14 | -1.71 ± 0.13 |
| ACAGAGCAAUAUUACGCAGU |  | -2.62 ± 0.4 |
| ACAGAGCAAUAUUACGCCGA | -2.95 ± 0.48 | -2.76 ± 0.38 |
| ACAGAGCAAUAUUACGCCUG |  | -1.94 ± 0.46 |
| ACAGAGCAAUAUUACGCGUG | -1.81 ± 0.081 | -1.87 ± 0.1 |
| ACAGAGCAAUAUUACGCUCC |  | -1.45 ± 0.42 |
| ACAGAGCAAUAUUACGGAGG | -3.8 ± 0.33 | -1.39 ± 0.24 |
| ACAGAGCAAUAUUACGGCUU | -3.27 ± 0.23 | -1.99 ± 0.18 |
| ACAGAGCAAUAUUACGGUGU | -3.8 ± 0.15 | -3.02 ± 0.22 |
| ACAGAGCAAUAUUACGUAGG | -3.59 ± 0.14 | -1.61 ± 0.13 |
| ACAGAGCAAUAUUACGUCGC | -2.98 ± 0.31 | -3.02 ± 0.31 |
| ACAGAGCAAUAUUACGUUCC | -2.89 ± 0.32 | -1.81 ± 0.34 |

| Sequence | self-splicing fitness (ln) (30 °C) | self-splicing fitness (ln) (37 °C) |
| --- | --- | --- |
| ACAGAGCAAUAUUACGUUCU | -3.89 ± 0.26 | -3.29 ± 0.29 |
| ACAGAGCAAUAUUACGUUUA | -3.01 ± 0.15 | -3.24 ± 0.23 |
| ACAGAGCAAUAUUACGUUUG | -3.85 ± 0.25 | -3.07 ± 0.24 |
| ACAUAGCAAUAUUACGAAGU | -2.67 ± 0.21 | -2.85 ± 0.23 |
| ACAUAGCAAUAUUACGAAUC | -3.23 ± 0.2 | -2.78 ± 0.28 |
| ACAUAGCAAUAUUACGACAG | -1.46 ± 0.099 | -0.508 ± 0.11 |
| ACAUAGCAAUAUUACGACCC | -0.944 ± 0.36 | -0.798 ± 0.32 |
| ACAUAGCAAUAUUACGACGU | 0.079 ± 0.081 | 0.0804 ± 0.083 |
| ACAUAGCAAUAUUACGACUA | -0.666 ± 0.11 | -0.473 ± 0.1 |
| ACAUAGCAAUAUUACGAGGG | -3.52 ± 0.19 | -3.05 ± 0.29 |
| ACAUAGCAAUAUUACGAUAA | -2.16 ± 0.13 | -1.72 ± 0.17 |
| ACAUAGCAAUAUUACGAUGC | -3.16 ± 0.15 | -0.811 ± 0.12 |
| ACAUAGCAAUAUUACGCAGU | -3.57 ± 0.28 | -2.84 ± 0.36 |
| ACAUAGCAAUAUUACGCAUU | -3.32 ± 0.11 | -2.46 ± 0.13 |
| ACAUAGCAAUAUUACGCGAC | -3.68 ± 0.42 | -0.813 ± 0.18 |
| ACAUAGCAAUAUUACGGCAG | -1.29 ± 0.11 | -0.918 ± 0.16 |
| ACAUAGCAAUAUUACGGCGA | -0.475 ± 0.09 | -0.0687 ± 0.1 |
| ACAUAGCAAUAUUACGGGCA | -1.57 ± 0.11 | -1.76 ± 0.098 |
| ACAUAGCAAUAUUACGGUGC | -3.84 ± 0.25 | -2.54 ± 0.21 |
| ACAUAGCAAUAUUACGGUGG | -3.62 ± 0.14 | -2.14 ± 0.12 |
| ACAUAGCAAUAUUACGGUUU | -2.13 ± 0.057 | -0.763 ± 0.071 |
| ACAUAGCAAUAUUACGUACA | -2.25 ± 0.16 | -1.25 ± 0.12 |
| ACAUAGCAAUAUUACGUAUA | -3.09 ± 0.22 | -1.78 ± 0.21 |
| ACAUAGCAAUAUUACGUCGU | -2.92 ± 0.11 | -2.33 ± 0.13 |

| Sequence | self-splicing fitness (ln) (30 °C) | self-splicing fitness (ln) (37 °C) |
| --- | --- | --- |
| ACAUAGCAAUAUUACGUGAU | -1.7 ± 0.061 | -1.2 ± 0.088 |
| ACAUAGCAAUAUUACGUGCU | -0.99 ± 0.072 | -1.1 ± 0.085 |
| ACCAAGCAAUAUUACGAAUC | -1.48 ± 0.18 | -1.4 ± 0.2 |
| ACCAAGCAAUAUUACGACCC | -1.37 ± 0.096 | -0.181 ± 0.15 |
| ACCAAGCAAUAUUACGACUC | -1.56 ± 0.17 | -0.459 ± 0.2 |
| ACCAAGCAAUAUUACGACUG | -1.11 ± 0.062 | -1.07 ± 0.099 |
| ACCAAGCAAUAUUACGAUUG | -2.86 ± 0.13 | -3.02 ± 0.16 |
| ACCAAGCAAUAUUACGCAGU | -3.71 ± 0.22 | -2.77 ± 0.28 |
| ACCAAGCAAUAUUACGCGAG | -2.46 ± 0.076 | -1.27 ± 0.072 |
| ACCAAGCAAUAUUACGCGUC | -3.45 ± 0.2 | -2.46 ± 0.22 |
| ACCAAGCAAUAUUACGCUAC | -2.89 ± 0.13 | -0.773 ± 0.1 |
| ACCAAGCAAUAUUACGCUUA | -1.86 ± 0.11 | -1.08 ± 0.11 |
| ACCAAGCAAUAUUACGGAGG | -1.63 ± 0.12 | -1.8 ± 0.29 |
| ACCAAGCAAUAUUACGGCAA | -0.915 ± 0.08 | -0.348 ± 0.099 |
| ACCAAGCAAUAUUACGGGCC | -2.26 ± 0.085 | -2.07 ± 0.096 |
| ACCAAGCAAUAUUACGGGUA | -1.98 ± 0.091 | -0.405 ± 0.072 |
| ACCAAGCAAUAUUACGGUAA | -2.9 ± 0.14 | -2.02 ± 0.12 |
| ACCAAGCAAUAUUACGGUAC | -3.83 ± 0.22 | -1.16 ± 0.15 |
| ACCAAGCAAUAUUACGGUGU | -3.43 ± 0.11 | -2.18 ± 0.11 |
| ACCAAGCAAUAUUACGGUUG | -3.21 ± 0.11 | -3.88 ± 0.23 |
| ACCAAGCAAUAUUACGUACA | -1.46 ± 0.079 | -1.05 ± 0.085 |
| ACCAAGCAAUAUUACGUCGG | -2.09 ± 0.074 | -1.36 ± 0.09 |
| ACCAAGCAAUAUUACGUCUA | -1.29 ± 0.11 | -0.982 ± 0.1 |
| ACCAAGCAAUAUUACGUUAG | -3.94 ± 0.17 | -2.83 ± 0.17 |

| Sequence | self-splicing fitness (ln) (30 °C) | self-splicing fitness (ln) (37 °C) |
| --- | --- | --- |
| ACCCAGCAAUAUUACGACGA | -0.509 ± 0.084 | -0.36 ± 0.086 |
| ACCCAGCAAUAUUACGACUA | -0.803 ± 0.082 | -0.765 ± 0.086 |
| ACCCAGCAAUAUUACGACUC | -0.5 ± 0.061 | -0.482 ± 0.079 |
| ACCCAGCAAUAUUACGAGAU | -1.72 ± 0.061 | -0.655 ± 0.073 |
| ACCCAGCAAUAUUACGAGCU | -4.29 ± 0.21 | -2.17 ± 0.14 |
| ACCCAGCAAUAUUACGAUCC | -1.96 ± 0.079 | -1.17 ± 0.12 |
| ACCCAGCAAUAUUACGAUUC | -1.71 ± 0.046 | -0.7 ± 0.063 |
| ACCCAGCAAUAUUACGCAGC | -1.41 ± 0.068 | -0.445 ± 0.068 |
| ACCCAGCAAUAUUACGCCAA | -2.43 ± 0.15 | -2.03 ± 0.15 |
| ACCCAGCAAUAUUACGCCGG | -3.06 ± 0.16 | -2.96 ± 0.26 |
| ACCCAGCAAUAUUACGCGAU | -1.84 ± 0.1 | -1.47 ± 0.11 |
| ACCCAGCAAUAUUACGCGCG | -1.66 ± 0.077 | -0.872 ± 0.097 |
| ACCCAGCAAUAUUACGCUCU | -0.186 ± 0.058 | 0.107 ± 0.067 |
| ACCCAGCAAUAUUACGCUGC | -3.77 ± 0.26 | -2.88 ± 0.27 |
| ACCCAGCAAUAUUACGGCGA | -0.786 ± 0.076 | 0.532 ± 0.096 |
| ACCCAGCAAUAUUACGGCUG | -3.68 ± 0.2 | -2.06 ± 0.18 |
| ACCCAGCAAUAUUACGGGCU | -1.68 ± 0.07 | -0.729 ± 0.072 |
| ACCCAGCAAUAUUACGGUAG | -3.82 ± 0.11 | -2.97 ± 0.16 |
| ACCCAGCAAUAUUACGUAAA | -0.691 ± 0.053 | -0.513 ± 0.075 |
| ACCCAGCAAUAUUACGUACG | -2.2 ± 0.14 | -1.71 ± 0.16 |
| ACCCAGCAAUAUUACGUAGC | -0.673 ± 0.044 | -0.163 ± 0.064 |
| ACCCAGCAAUAUUACGUAGU | 0.0959 ± 0.045 | 0.0745 ± 0.058 |
| ACCCAGCAAUAUUACGUGGA | -0.54 ± 0.048 | 0.15 ± 0.057 |
| ACCCAGCAAUAUUACGUUCA | -0.957 ± 0.061 | -0.811 ± 0.071 |
